As a reminder, the stoichiometry N is the number of molecules, sites or subunits per partner or assembly.

Five substances from paper PMC8982139 can be followed below.

The target of experiment [1] is C.1086 NFL (native flexibly linked, with I559P) gp140 trimer (HIV-1 (clade C, C.1086)). Kind of experiment: SEC. In general terms: In gel filtration, larger molecules generally elute earlier.
The target in experiment [2] is C.1086 SOSIP gp140 (HIV-1 (clade C, C.1086)). The experiment can be described thus: SEC.
In experiment [3] the target is C.1086 UFO-v2 gp140 trimer (UFO with E64K/T316W/A433P) (HIV-1 (clade C, C.1086)). Kind of experiment: SEC.
In experiment [4] the target is C.1086 UFO-v2-RQH^173 gp140 trimer (UFO-v2 with K166R/H170Q, H173 kept) (HIV-1 (clade C, C.1086)). Kind of experiment: SEC.
The target is the same in experiment [5]. The experiment can be described thus: native gel or EMSA. (Mobility shift assays separate free from complexed probe on a gel.)
For experiment [6] the target is unchanged. The experiment can be described thus: negative-stain electron microscopy.
For experiment [7], the target named is C.1086 UFO-v2-RQY^173 gp140 trimer (UFO-v2 with K166R/H170Q/H173Y) (HIV-1 (clade C, C.1086)). The experiment can be described thus: native gel or EMSA.
The target is the same in experiment [8]. Kind of experiment: negative-stain electron microscopy.

The substance “C.1086 NFL (native flexibly linked, with I559P) gp140 trimer” had a stoichiometry N in experiment [1] of 3.
As for C.1086 SOSIP gp140, the stoichiometry N in experiment [2] is 3.
“C.1086 UFO-v2 gp140 trimer (UFO with E64K/T316W/A433P)”: in experiment [3], the stoichiometry N turned out to be 3.
In the case of “C.1086 UFO-v2-RQH^173 gp140 trimer (UFO-v2 with K166R/H170Q, H173 kept)”, the stoichiometry N in experiment [4], in experiment [5] and in experiment [6] was 3 in each case.
As to “C.1086 UFO-v2-RQY^173 gp140 trimer (UFO-v2 with K166R/H170Q/H173Y)”, the stoichiometry N in experiment [7] and in experiment [8] was 3 throughout.
